Test [1] concerns the target afumPCNA (A. fumigatus PCNA) (Aspergillus fumigatus, UniProt A0A229Y5V5). The test is described as follows: biochemical. Format: binding. The procedure: Surface plasmon resonance (SPR) experiments were performed as previously described. The running buffer used for ligand attachment and analyte-binding experiments was a 10 mM HEPES buffer with 150 mM NaCl, 3 mM EDTA, and 0.05% Tween-20, adjusted to pH 7.4 with 2 M NaOH. A GE CM5 (series S) sensor chip was primed with the running buffer and preconditioned with successive injections (2 × 50 s, 30 μL/min) of 50 mM NaOH, 10 mM HCl, 0.1% SDS, 0.85% H3PO4, and 50 mM glycine pH 9.5, respectively. The surface was then activated with an injection of 0.2 M 1-ethyl-3-(3-dimethylaminopropyl)carbodiimide (EDC) and 50 mM N-hydroxysuccinimide (NHS) (600 s, 10 μL/min). A. fumigatus PCNA (5 μL, 12 mg/mL) was diluted into the running buffer (245 μL). Upon the preactivation of the surface, the protein was further diluted to a final concentration of 25 μg/mL in 10 mM NaAc (~pH 4.6). This solution was immediately injected over the target flow cell (10 μL/min) to immobilize ~1500 RU. Both the target and reference flow cells were then blocked with 1.0 M ethanolamine at pH 8.5 (600 s, 10 μL/min). The chip was left to stabilize before sample injections commenced.
Peptide stock solutions for use in SPR experiments were prepared in MilliQ water. The peptide stock concentration was determined via 205 nm absorbance with NanoDrop2000. The ε205 for each peptide was calculated using an online calculator (http://nickanthis.com/tools/a205.html, accessed on 22 August 2022 [24]); however, additional glycine residue was added to each peptide sequence to account for the terminal amide of the peptides synthesized in-house. The peptide stock solution’s concentration was then calculated using Beer’s Law.
A 2-fold serial dilution was performed for each peptide, with 8 samples injected sequentially from the lowest to highest concentrations; they were preceded by a buffer-only blank injection. After each injection, the surface was regenerated with 2 M NaCl (2 × 30 s, 25 μL/min). All data were analyzed using the GE Biosystems Biacore S200 Evaluation Software, Version 1.0 (Build: 20).

In test [2] the target is Aspergillus fumigatus proliferating cell nuclear antigen (Aspergillus fumigatus). The test is described as follows: SPR.
The target of test [3] is T1, human proliferating cell nuclear antigen (human, UniProt P12004 1-259).
T1 construct: also called hPCNA; human PCNA
T1 sequence (P12004 1-259): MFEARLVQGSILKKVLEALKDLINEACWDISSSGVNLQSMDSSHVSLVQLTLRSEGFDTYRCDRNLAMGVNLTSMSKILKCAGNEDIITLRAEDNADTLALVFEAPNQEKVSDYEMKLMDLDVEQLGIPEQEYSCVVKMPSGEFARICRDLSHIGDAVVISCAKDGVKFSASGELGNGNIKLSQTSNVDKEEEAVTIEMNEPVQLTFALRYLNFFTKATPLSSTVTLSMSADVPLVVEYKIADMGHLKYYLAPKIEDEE
The test is described as follows: SPR; peptide against human PCNA, tested in triplicate; immobilisation of human PCNA not described here (SPR as previously described, ref. 18). The note with it: both partners purified.

Setting [4] is: afumPCNA Binding Affinity KD (nM) ± SD (nM).
[5] abbreviates: read-out: afumPCNA Binding Affinity KD (nM) ± SD, SPR steady-state affinity, afumPCNA immobilised on CM5 chip (~1500 RU), 10 mM HEPES, 150 mM NaCl, 3 mM EDTA, 0.05% Tween-20, pH 7.4, 8 x 2-fold dilutions, contact 40 s, dissociation 30 s, KD ± SD.
Setting [6] is: afumPCNA Binding Affinity KD (nM) ± KD SD (nM).

Like-named read-outs stand apart in the source and are kept apart here. Ends that are not written are not given here. Peptide text beside a SMILES is read from it.

Turning to `CSCC[C@H](NC(=O)[C@H](CO)NC(=O)[C@@H](NC(=O)[C@H](CCC(N)=O)NC(=O)[C@H](CCCNC(=N)N)NC(=O)[C@H](CCCNC(=N)N)NC(=O)[C@@H](N)CCCCN)[C@@H](C)O)C(=O)N[C@H](C(=O)N[C@@H](CC(=O)O)C(=O)N[C@@H](Cc1ccc(O)cc1)C(=O)N[C@@H](Cc1ccccc1)C(=O)N[C@@H](Cc1c[nH]cn1)C(=O)N[C@@H](CO)C(=O)N[C@@H](CCCCN)C(=O)N[C@@H](CCCNC(=N)N)C(N)=O)[C@@H](C)O` [p21μ-FY150151YF] (H-KRRQTSMTDYFHSKR-NH2), in test [1] (setting [4]), the affinity, expressed as Kd, was 96.4 ± 19.6 nM. With `CSCC[C@H](NC(=O)[C@H](CCCNC(=N)N)NC(=O)[C@H](CCCNC(=N)N)NC(=O)[C@@H](N)CCCCN)C(=O)N[C@H](C(=O)N[C@@H](CO)C(=O)N[C@@H](CCSC)C(=O)N[C@H](C(=O)N[C@@H](CC(=O)O)C(=O)N[C@@H](Cc1ccccc1)C(=O)N[C@@H](Cc1ccc(O)cc1)C(=O)N[C@@H](Cc1c[nH]cn1)C(=O)N[C@@H](CO)C(=O)N[C@@H](CCCCN)C(=O)N[C@@H](CCCNC(=N)N)C(N)=O)[C@@H](C)O)[C@@H](C)O` [p21μ-Q144M] (H-KRRMTSMTDFYHSKR-NH2), the equilibrium dissociation constant (Kd) (usually a measure of binding affinity in units of concentration) in test [1] (setting [5]) came out at 41400 nM. In turn, `CC[C@H](C)[C@H](NC(=O)[C@H](CCCNC(=N)N)NC(=O)[C@@H](NC(=O)[C@H](CCC(N)=O)NC(=O)[C@H](CCCNC(=N)N)NC(=O)[C@H](CCCNC(=N)N)NC(=O)[C@@H](N)CCCCN)[C@@H](C)O)C(=O)N[C@H](C(=O)N[C@@H](CCC(=O)O)C(=O)N[C@@H](Cc1ccc(O)cc1)C(=O)N[C@@H](Cc1ccccc1)C(=O)N[C@@H](Cc1c[nH]cn1)C(=O)N[C@@H](CO)C(=O)N[C@@H](CCCCN)C(=O)N[C@@H](CCCNC(=N)N)C(N)=O)[C@@H](C)O` [p21μ-RD2] (H-KRRQTRITEYFHSKR-NH2) gave a Kd in test [1] (Affinity KD (nM) (Table S1)) of 20.3 nM. In test [1] (Affinity KD (nM) (Table S1), SPR steady-state affinity against AfumPCNA, 8x 1 in 2 dilutions from Top Conc, On/Off 40/30 s), `CSCC[C@H](NC(=O)[C@H](CO)NC(=O)[C@H](CC(=O)O)NC(=O)[C@H](CCC(N)=O)NC(=O)[C@H](CCCNC(=N)N)NC(=O)[C@H](CCCNC(=N)N)NC(=O)[C@@H](N)CCCCN)C(=O)N[C@H](C(=O)N[C@@H](CC(=O)O)C(=O)N[C@@H](Cc1ccccc1)C(=O)N[C@@H](Cc1ccc(O)cc1)C(=O)N[C@@H](Cc1c[nH]cn1)C(=O)N[C@@H](CO)C(=O)N[C@@H](CCCCN)C(=O)N[C@@H](CCCNC(=N)N)C(N)=O)[C@@H](C)O` [p21μ-T145D] (H-KRRQDSMTDFYHSKR-NH2) had an equilibrium dissociation constant (Kd) of 4110 nM. Consider `CSCC[C@H](NC(=O)[C@H](CO)NC(=O)[C@H](CCCCN)NC(=O)[C@H](CCC(N)=O)NC(=O)[C@H](CCCNC(=N)N)NC(=O)[C@H](CCCNC(=N)N)NC(=O)[C@@H](N)CCCCN)C(=O)N[C@H](C(=O)N[C@@H](CC(=O)O)C(=O)N[C@@H](Cc1ccccc1)C(=O)N[C@@H](Cc1ccc(O)cc1)C(=O)N[C@@H](Cc1c[nH]cn1)C(=O)N[C@@H](CO)C(=O)N[C@@H](CCCCN)C(=O)N[C@@H](CCCNC(=N)N)C(N)=O)[C@@H](C)O` [p21μ-T145K] (H-KRRQKSMTDFYHSKR-NH2), for which, in test [1] (setting [5]), the Kd stood at 10000 nM. In turn, `CSCC[C@H](NC(=O)[C@H](CO)NC(=O)[C@@H](NC(=O)[C@H](CCC(N)=O)NC(=O)[C@H](CCCNC(=N)N)NC(=O)[C@H](CCCNC(=N)N)NC(=O)[C@@H](N)CCCCN)[C@@H](C)O)C(=O)N[C@H](C(=O)N[C@@H](CC(=O)O)C(=O)N[C@@H](Cc1ccccc1)C(=O)N[C@@H](Cc1ccc(O)cc1)C(=O)N[C@@H](Cc1c[nH]cn1)C(=O)N[C@@H](CO)C(=O)N[C@@H](CCCCN)C(=O)N[C@@H](CCCNC(=N)N)C(N)=O)[C@@H](C)O` [p21μ] gave a Kd in test [1] (setting [4]) of 265 ± 5.9 nM.

`CC[C@H](C)[C@H](NC(=O)[C@H](CO)NC(=O)[C@H](CCCNC(=N)N)NC(=O)[C@@H](NC(=O)[C@H](CCCNC(=N)N)NC(=O)[C@H](CCC(N)=O)NC(=O)[C@H](CCCNC(=N)N)NC(=O)[C@H](CCCNC(=N)N)NC(=O)[C@@H](N)CCCCN)C(C)C)C(=O)N[C@@H](C)C(=O)N[C@@H](CO)C(=O)N[C@@H](Cc1ccccc1)C(=O)N[C@@H](Cc1ccccc1)C(=O)N[C@@H](Cc1c[nH]cn1)C(=O)N[C@@H](CO)C(=O)N[C@@H](CCCCN)C(=O)N[C@@H](CCCNC(=N)N)C(N)=O` [p21μafumDNALIG] (H-KRRQRVRSIASFFHSKR-NH2) came in with a Kd in test [1] (setting [6]) of 458 ± 118 nM.

Take `CC(C)C[C@H](NC(=O)[C@H](CCCNC(=N)N)NC(=O)[C@H](CO)NC(=O)[C@H](CCC(N)=O)NC(=O)[C@H](CCCNC(=N)N)NC(=O)[C@H](CCCNC(=N)N)NC(=O)[C@@H](N)CCCCN)C(=O)N[C@@H](CCC(=O)O)C(=O)NCC(=O)N[C@@H](Cc1ccccc1)C(=O)N[C@@H](Cc1ccccc1)C(=O)N[C@@H](Cc1c[nH]cn1)C(=O)N[C@@H](CO)C(=O)N[C@@H](CCCCN)C(=O)N[C@@H](CCCNC(=N)N)C(N)=O` [p21μafumFEN1] (H-KRRQSRLEGFFHSKR-NH2): the Kd in test [1] (setting [6]) came out at 713 ± 56.9 nM.

In test [1] (setting [6]), `CC[C@H](C)[C@H](NC(=O)[C@H](CC(=O)O)NC(=O)[C@@H](NC(=O)[C@@H]1CCCN1C(=O)[C@H](CCSC)NC(=O)[C@H](CCCNC(=N)N)NC(=O)[C@H](CCCNC(=N)N)NC(=O)[C@@H](N)CCCCN)[C@@H](C)O)C(=O)N[C@@H](CCCNC(=N)N)C(=O)N[C@@H](CC(N)=O)C(=O)N[C@@H](Cc1ccccc1)C(=O)N[C@@H](Cc1ccccc1)C(=O)N[C@@H](Cc1c[nH]cn1)C(=O)N[C@@H](CO)C(=O)N[C@@H](CCCCN)C(=O)N[C@@H](CCCNC(=N)N)C(N)=O` [p21μafumRFC] (H-KRRMPTDIRNFFHSKR-NH2) came in with a dissociation constant (Kd) of 94.8 ± 8.76 nM. p21µ peptide (141-155) returned a Kd in test [2] of 265 nM. Turning to p21µ-FY150151YF peptide, the Kd in test [2] is 96.4 nM. Same read-out and setting: for KRRQTRITEYFHSKR-NH2 [p21µ-RD2 peptide] the value was 20.3 nM; for KRRQKSMTDFYHSKR-NH2 [p21µ-T145K peptide], 10000 nM; for KRRMTSMTDFYHSKR-NH2 [p21µ-Q144M peptide], 41400 nM.

As for KRRQTSMTDFFHSKR-NH2 [p21µ-Y151F peptide], the Kd in test [2] was determined as 167 nM.

B1: p21µ-afumRFC peptide (peptide)
peptide: KRRMPTDIRNFFHSKR-NH2
notes: also called p21μafumRFC; p21µRFC; source: synthetic peptide, Genscript Biotech (>95%, HPLC)
B1: the dissociation constant (Kd) in test [3] was determined as 295 nM. Regarding KRRQTSMTEFYHSKR-NH2 [p21µ-D149E peptide], the Kd in test [2] turned out to be 401 nM. On the same count and under the same terms, for KRRQDSMTDFYHSKR-NH2 [p21µ-T145D peptide] the value was 4100 nM; for KRRQTSLTDFYHSKR-NH2 [p21µ-M147L peptide], 382 nM; for KRRQTSITDFYHSKR-NH2 [p21µ-M147I peptide], 37.1 nM.
